This note sets out measurements from article PMC12102759 (2025).

To fix the notation:
B1: CBL peptide 540-555 (E3 ubiquitin-protein ligase CBL), 16-mer library wild type / YES SH3 (YES1 SH3 domain, residues 90-152) (parent complex)
chain 1: RDLPPPPPPDRPYSVG
chain 2: not shown

In the assay the parent is B1. Put plainly: proteomic peptide phage display deep mutational scan (ProP-PD DMS): M13 P8 16-mer library selected against immobilised GST-tagged bait for four days (rounds), NGS of the eluted pools per day and pseudo-replica; bait immobilised on MaxiSorp plates (10 µg), library pre-cleared on GST, 2 h binding at 4 °C, five washes; one round per day, days 1-4; value from days 2 and 3.
For the variant chain 1 D2Q, the screen value is 0.00168 average fractional NGS count over selection days 2 and 3 (reads of this peptide / all reads for the bait, averaged over …. Under chain 1 D2H stands 0.000405 average fractional NGS count over selection days 2 and 3 (reads of this peptide / all reads for the bait, averaged over …; under chain 1 D2E, 0.0027 average fractional NGS count over selection days 2 and 3 (reads of this peptide / all reads for the bait, averaged over …; under chain 1 D2I, 0.00123 average fractional NGS count over selection days 2 and 3 (reads of this peptide / all reads for the bait, averaged over …. On to chain 1 D2V, for which the screen value is 0.00212 average fractional NGS count over selection days 2 and 3 (reads of this peptide / all reads for the bait, averaged over …. With chain 1 L3M, the screen value is 0.00032 average fractional NGS count over selection days 2 and 3 (reads of this peptide / all reads for the bait, averaged over ….

As for chain 1 L3I, the screen value is 0.00353 average fractional NGS count over selection days 2 and 3 (reads of this peptide / all reads for the bait, averaged over …. Regarding chain 1 L3E, the screen value is 5.03e-05 average fractional NGS count over selection days 2 and 3 (reads of this peptide / all reads for the bait, averaged over …. With chain 1 L3S, the screen value was 6.99e-05 average fractional NGS count over selection days 2 and 3 (reads of this peptide / all reads for the bait, averaged over …. As for chain 1 L3K, the screen value is 0.000147 average fractional NGS count over selection days 2 and 3 (reads of this peptide / all reads for the bait, averaged over …. chain 1 L3A: the screen value is 0.000233 average fractional NGS count over selection days 2 and 3 (reads of this peptide / all reads for the bait, averaged over …. For chain 1 L3W the value was 0.000182 average fractional NGS count over selection days 2 and 3 (reads of this peptide / all reads for the bait, averaged over …; for chain 1 L3F, 9.32e-05 average fractional NGS count over selection days 2 and 3 (reads of this peptide / all reads for the bait, averaged over …. Under chain 1 S14A stands 0.00883 average fractional NGS count over selection days 2 and 3 (reads of this peptide / all reads for the bait, averaged over …; under chain 1 S14Y, 0.00258 average fractional NGS count over selection days 2 and 3 (reads of this peptide / all reads for the bait, averaged over …. Under chain 1 S14Q stands 0.000166 average fractional NGS count over selection days 2 and 3 (reads of this peptide / all reads for the bait, averaged over …. With chain 1 S14H, the screen value was 0.000385 average fractional NGS count over selection days 2 and 3 (reads of this peptide / all reads for the bait, averaged over ….

Turning to chain 1 S14L, the screen value is 0.0182 average fractional NGS count over selection days 2 and 3 (reads of this peptide / all reads for the bait, averaged over …. Under chain 1 S14T stands 0.0152 average fractional NGS count over selection days 2 and 3 (reads of this peptide / all reads for the bait, averaged over …; under chain 1 S14F, 0.0172 average fractional NGS count over selection days 2 and 3 (reads of this peptide / all reads for the bait, averaged over …. In the case of chain 1 S14I, the screen value was 0.00339 average fractional NGS count over selection days 2 and 3 (reads of this peptide / all reads for the bait, averaged over …. For the variant chain 1 S14R, the screen value is 6.61e-05 average fractional NGS count over selection days 2 and 3 (reads of this peptide / all reads for the bait, averaged over ….

For chain 1 S14M, the screen value is 0.00137 average fractional NGS count over selection days 2 and 3 (reads of this peptide / all reads for the bait, averaged over …. Turning to chain 1 S14D, the screen value is 0.000862 average fractional NGS count over selection days 2 and 3 (reads of this peptide / all reads for the bait, averaged over …. Under chain 1 P6Y stands 0.000164 average fractional NGS count over selection days 2 and 3 (reads of this peptide / all reads for the bait, averaged over …. For chain 1 P6F the value was 0.00211 average fractional NGS count over selection days 2 and 3 (reads of this peptide / all reads for the bait, averaged over …. As for chain 1 P6Q, the screen value is 0.000768 average fractional NGS count over selection days 2 and 3 (reads of this peptide / all reads for the bait, averaged over …. On to chain 1 P6N, for which the screen value is 0.000163 average fractional NGS count over selection days 2 and 3 (reads of this peptide / all reads for the bait, averaged over ….

For the variant chain 1 P6V, the screen value is 0.0162 average fractional NGS count over selection days 2 and 3 (reads of this peptide / all reads for the bait, averaged over …. chain 1 P6M: the screen value is 0.0066 average fractional NGS count over selection days 2 and 3 (reads of this peptide / all reads for the bait, averaged over …. For chain 1 P6A the value was 0.0119 average fractional NGS count over selection days 2 and 3 (reads of this peptide / all reads for the bait, averaged over …. For chain 1 P6E, the screen value is 0.000208 average fractional NGS count over selection days 2 and 3 (reads of this peptide / all reads for the bait, averaged over ….

With chain 1 P5Y, the screen value was 0.000822 average fractional NGS count over selection days 2 and 3 (reads of this peptide / all reads for the bait, averaged over ….

Regarding chain 1 P5L, the screen value is 0.00149 average fractional NGS count over selection days 2 and 3 (reads of this peptide / all reads for the bait, averaged over …. chain 1 P5W: the screen value was 0.000217 average fractional NGS count over selection days 2 and 3 (reads of this peptide / all reads for the bait, averaged over …. Under chain 1 P5I stands 0.0162 average fractional NGS count over selection days 2 and 3 (reads of this peptide / all reads for the bait, averaged over …; under chain 1 P5S, 0.00042 average fractional NGS count over selection days 2 and 3 (reads of this peptide / all reads for the bait, averaged over …; under chain 1 P5G, 0.00951 average fractional NGS count over selection days 2 and 3 (reads of this peptide / all reads for the bait, averaged over …. For chain 1 P5H the value was 0.00214 average fractional NGS count over selection days 2 and 3 (reads of this peptide / all reads for the bait, averaged over …; for chain 1 P5K, 0.0018 average fractional NGS count over selection days 2 and 3 (reads of this peptide / all reads for the bait, averaged over …. Under chain 1 P5F stands 0.00079 average fractional NGS count over selection days 2 and 3 (reads of this peptide / all reads for the bait, averaged over …. With chain 1 P5M, the screen value is 0.00164 average fractional NGS count over selection days 2 and 3 (reads of this peptide / all reads for the bait, averaged over …. chain 1 P5A: the screen value is 0.000329 average fractional NGS count over selection days 2 and 3 (reads of this peptide / all reads for the bait, averaged over …. In the case of chain 1 P5T, the screen value is 0.00773 average fractional NGS count over selection days 2 and 3 (reads of this peptide / all reads for the bait, averaged over ….

Consider chain 1 P5R, for which the screen value was 0.00132 average fractional NGS count over selection days 2 and 3 (reads of this peptide / all reads for the bait, averaged over ….

For the variant chain 1 P5Q, the screen value is 0.00016 average fractional NGS count over selection days 2 and 3 (reads of this peptide / all reads for the bait, averaged over …. For chain 1 D10W the value was 0.00158 average fractional NGS count over selection days 2 and 3 (reads of this peptide / all reads for the bait, averaged over …; for chain 1 D10Q, 0.000233 average fractional NGS count over selection days 2 and 3 (reads of this peptide / all reads for the bait, averaged over …; for chain 1 D10P, 0.000173 average fractional NGS count over selection days 2 and 3 (reads of this peptide / all reads for the bait, averaged over …. With chain 1 D10F, the screen value is 0.000931 average fractional NGS count over selection days 2 and 3 (reads of this peptide / all reads for the bait, averaged over …. With chain 1 D10N, the screen value was 0.000163 average fractional NGS count over selection days 2 and 3 (reads of this peptide / all reads for the bait, averaged over …. For chain 1 D10H the value was 0.00429 average fractional NGS count over selection days 2 and 3 (reads of this peptide / all reads for the bait, averaged over …; for chain 1 D10M, 0.00163 average fractional NGS count over selection days 2 and 3 (reads of this peptide / all reads for the bait, averaged over …. For chain 1 D10A the value was 0.00828 average fractional NGS count over selection days 2 and 3 (reads of this peptide / all reads for the bait, averaged over …; for chain 1 D10K, 0.00142 average fractional NGS count over selection days 2 and 3 (reads of this peptide / all reads for the bait, averaged over …; for chain 1 D10V, 0.000894 average fractional NGS count over selection days 2 and 3 (reads of this peptide / all reads for the bait, averaged over …. Under chain 1 D10I stands 0.000128 average fractional NGS count over selection days 2 and 3 (reads of this peptide / all reads for the bait, averaged over …; under chain 1 D10E, 0.0012 average fractional NGS count over selection days 2 and 3 (reads of this peptide / all reads for the bait, averaged over …; under chain 1 P4Q, 0.000154 average fractional NGS count over selection days 2 and 3 (reads of this peptide / all reads for the bait, averaged over …. For chain 1 P4H, the screen value is 8.18e-05 average fractional NGS count over selection days 2 and 3 (reads of this peptide / all reads for the bait, averaged over …. For chain 1 P4I the value was 0.000839 average fractional NGS count over selection days 2 and 3 (reads of this peptide / all reads for the bait, averaged over …; for chain 1 P4M, 0.000259 average fractional NGS count over selection days 2 and 3 (reads of this peptide / all reads for the bait, averaged over …; for chain 1 P4T, 0.00019 average fractional NGS count over selection days 2 and 3 (reads of this peptide / all reads for the bait, averaged over ….

As for chain 1 P4E, the screen value was 0.000136 average fractional NGS count over selection days 2 and 3 (reads of this peptide / all reads for the bait, averaged over ….

As for chain 1 P4L, the screen value is 0.000253 average fractional NGS count over selection days 2 and 3 (reads of this peptide / all reads for the bait, averaged over …. For the variant chain 1 R1H, the screen value is 0.0063 average fractional NGS count over selection days 2 and 3 (reads of this peptide / all reads for the bait, averaged over …. Under chain 1 R1F stands 0.000504 average fractional NGS count over selection days 2 and 3 (reads of this peptide / all reads for the bait, averaged over ….

In the case of chain 1 R1P, the screen value was 0.000732 average fractional NGS count over selection days 2 and 3 (reads of this peptide / all reads for the bait, averaged over …. In the case of chain 1 R1I, the screen value was 0.00103 average fractional NGS count over selection days 2 and 3 (reads of this peptide / all reads for the bait, averaged over ….

On to chain 1 R1Q, for which the screen value is 7.8e-05 average fractional NGS count over selection days 2 and 3 (reads of this peptide / all reads for the bait, averaged over …. Consider chain 1 R1M, for which the screen value was 0.00223 average fractional NGS count over selection days 2 and 3 (reads of this peptide / all reads for the bait, averaged over …. For chain 1 R1N the value was 0.00136 average fractional NGS count over selection days 2 and 3 (reads of this peptide / all reads for the bait, averaged over …; for chain 1 R1T, 0.000703 average fractional NGS count over selection days 2 and 3 (reads of this peptide / all reads for the bait, averaged over ….

In the case of chain 1 R1L, the screen value was 0.000379 average fractional NGS count over selection days 2 and 3 (reads of this peptide / all reads for the bait, averaged over …. As for chain 1 R11G, the screen value is 0.00318 average fractional NGS count over selection days 2 and 3 (reads of this peptide / all reads for the bait, averaged over ….
